Measurements from patent publication US20220267475A1 (published 2022).
Each block holds one binder with its values, some of them ahead of it.

Key:
[1] = target: T1, TIGIT antigen expressed on CHO-K1 cells (UniProt Q495A1 22-244); assay: flow cytometry
T1 chain: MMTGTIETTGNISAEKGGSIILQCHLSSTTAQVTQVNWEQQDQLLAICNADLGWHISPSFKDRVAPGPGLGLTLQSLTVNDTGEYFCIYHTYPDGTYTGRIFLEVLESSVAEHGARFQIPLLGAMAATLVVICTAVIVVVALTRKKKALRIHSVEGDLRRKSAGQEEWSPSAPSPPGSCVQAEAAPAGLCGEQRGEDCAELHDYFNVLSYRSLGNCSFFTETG

[2] = target: CD47 antigen expressed on CHO-K1 cells (UniProt Q08722 19-323); assay: flow
CD47 antigen expressed on CHO-K1 cells, sequence (Q08722 19-323): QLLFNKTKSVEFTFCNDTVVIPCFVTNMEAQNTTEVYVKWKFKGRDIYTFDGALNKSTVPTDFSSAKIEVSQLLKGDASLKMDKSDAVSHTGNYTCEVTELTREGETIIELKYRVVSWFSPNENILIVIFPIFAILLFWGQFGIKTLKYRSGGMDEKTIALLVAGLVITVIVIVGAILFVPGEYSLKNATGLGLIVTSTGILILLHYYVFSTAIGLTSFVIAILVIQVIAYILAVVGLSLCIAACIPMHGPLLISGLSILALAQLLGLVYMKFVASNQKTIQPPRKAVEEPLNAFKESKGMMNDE

EC50 [1]: 168 pM
EC50 [2]: 852 pM
B1: TIGIT-G9-HN (bispecific antibody)
heavy: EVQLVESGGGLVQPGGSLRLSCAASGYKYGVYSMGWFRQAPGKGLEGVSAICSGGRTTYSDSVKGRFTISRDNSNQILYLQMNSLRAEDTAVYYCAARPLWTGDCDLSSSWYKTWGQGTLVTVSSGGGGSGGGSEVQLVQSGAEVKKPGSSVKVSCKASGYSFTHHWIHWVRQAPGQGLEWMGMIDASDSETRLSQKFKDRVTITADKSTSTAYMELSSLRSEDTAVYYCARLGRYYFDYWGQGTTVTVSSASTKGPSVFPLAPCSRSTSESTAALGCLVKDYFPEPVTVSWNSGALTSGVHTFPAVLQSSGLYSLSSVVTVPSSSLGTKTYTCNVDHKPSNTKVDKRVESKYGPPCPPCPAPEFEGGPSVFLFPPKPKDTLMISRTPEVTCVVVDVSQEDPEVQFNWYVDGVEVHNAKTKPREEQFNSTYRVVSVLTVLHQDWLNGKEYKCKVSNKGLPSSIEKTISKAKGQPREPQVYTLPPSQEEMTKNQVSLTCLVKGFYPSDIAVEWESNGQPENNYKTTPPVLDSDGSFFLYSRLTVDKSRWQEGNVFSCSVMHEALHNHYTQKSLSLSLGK
light: EIVLTQSPATLSLSPGERATLSCRASENVGTYISWYQQKPGQAPRLLIYGASNRYTGIPARFSGSGSGTDFTLTISSLEPEDFAVYYCGESYGHLYTFGGGTKVEIKRTVAAPSVFIFPPSDEQLKSGTASVVCLLNNFYPREAKVQWKVDNALQSGNSQESVTEQDSKDSTYSLSSTLTLSKADYEKHKVYACEVTHQGLSSPVTKSFNRGEC

EC50 [1]: 429 pM
EC50 [2]: 686 pM
B2: TIGIT-G9-HC (bispecific antibody)
heavy: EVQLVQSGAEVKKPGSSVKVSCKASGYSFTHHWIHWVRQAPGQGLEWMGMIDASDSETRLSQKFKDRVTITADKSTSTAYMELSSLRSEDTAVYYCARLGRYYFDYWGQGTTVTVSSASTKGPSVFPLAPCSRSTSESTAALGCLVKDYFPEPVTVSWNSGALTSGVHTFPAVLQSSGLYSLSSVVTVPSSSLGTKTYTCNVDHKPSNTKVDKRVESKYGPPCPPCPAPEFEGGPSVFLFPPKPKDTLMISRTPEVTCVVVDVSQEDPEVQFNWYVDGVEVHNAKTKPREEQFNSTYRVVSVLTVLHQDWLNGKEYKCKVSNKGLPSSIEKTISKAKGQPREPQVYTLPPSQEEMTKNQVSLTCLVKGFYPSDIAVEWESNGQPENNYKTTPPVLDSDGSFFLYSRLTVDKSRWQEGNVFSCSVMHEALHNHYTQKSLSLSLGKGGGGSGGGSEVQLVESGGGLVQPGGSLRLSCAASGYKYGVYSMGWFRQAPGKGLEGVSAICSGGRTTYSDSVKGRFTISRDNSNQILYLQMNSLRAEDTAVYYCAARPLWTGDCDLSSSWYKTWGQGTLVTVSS
light: B1 light

EC50 [1]: 658 pM
B6: TIGIT-G9-LC (bispecific antibody)
heavy: not shown
light: EIVLTQSPATLSLSPGERATLSCRASENVGTYISWYQQKPGQAPRLLIYGASNRYTGIPARFSGSGSGTDFTLTISSLEPEDFAVYYCGESYGHLYTFGGGTKVEIKRTVAAPSVFIFPPSDEQLKSGTASVVCLLNNFYPREAKVQWKVDNALQSGNSQESVTEQDSKDSTYSLSSTLTLSKADYEKHKVYACEVTHQGLSSPVTKSFNRGECGGGGSGGGSEVQLVESGGGLVQPGGSLRLSCAASGYKYGVYSMGWFRQAPGKGLEGVSAICSGGRTTYSDSVKGRFTISRDNSNQILYLQMNSLRAEDTAVYYCAARPLWTGDCDLSSSWYKTWGQGTLVTVSS

EC50 [1]: ~443 pM
EC50 [2]: 8.43 pM
B8: anti-CD47 monoclonal antibody (antibody, V domains shown)
VH: EVQLVQSGAEVKKPGSSVKVSCKASGYSFTHHWIHWVRQAPGQGLEWMGMIDASDSETRLSQKFKDRVTITADKSTSTAYMELSSLRSEDTAVYYCARLGRYYFDYWGQGTTVTVSS
VL: EIVLTQSPATLSLSPGERATLSCRASENVGTYISWYQQKPGQAPRLLIYGASNRYTGIPARFSGSGSGTDFTLTISSLEPEDFAVYYCGESYGHLYTFGGGTKVEIKR

EC50 [1]: 334 pM
B9: TIGIT-E-LC (bispecific antibody)
heavy: not shown
light: EIVLTQSPATLSLSPGERATLSCRASENVGTYISWYQQKPGQAPRLLIYGASNRYTGIPARFSGSGSGTDFTLTISSLEPEDFAVYYCGESYGHLYTFGGGTKVEIKRTVAAPSVFIFPPSDEQLKSGTASVVCLLNNFYPREAKVQWKVDNALQSGNSQESVTEQDSKDSTYSLSSTLTLSKADYEKHKVYACEVTHQGLSSPVTKSFNRGECEPKSSDKTHTSPPSPEVQLVESGGGLVQPGGSLRLSCAASGYKYGVYSMGWFRQAPGKGLEGVSAICSGGRTTYSDSVKGRFTISRDNSNQILYLQMNSLRAEDTAVYYCAARPLWTGDCDLSSSWYKTWGQGTLVTVSS

Second part, the binder before the results:

B3: TIGIT-E-HN (bispecific antibody)
heavy: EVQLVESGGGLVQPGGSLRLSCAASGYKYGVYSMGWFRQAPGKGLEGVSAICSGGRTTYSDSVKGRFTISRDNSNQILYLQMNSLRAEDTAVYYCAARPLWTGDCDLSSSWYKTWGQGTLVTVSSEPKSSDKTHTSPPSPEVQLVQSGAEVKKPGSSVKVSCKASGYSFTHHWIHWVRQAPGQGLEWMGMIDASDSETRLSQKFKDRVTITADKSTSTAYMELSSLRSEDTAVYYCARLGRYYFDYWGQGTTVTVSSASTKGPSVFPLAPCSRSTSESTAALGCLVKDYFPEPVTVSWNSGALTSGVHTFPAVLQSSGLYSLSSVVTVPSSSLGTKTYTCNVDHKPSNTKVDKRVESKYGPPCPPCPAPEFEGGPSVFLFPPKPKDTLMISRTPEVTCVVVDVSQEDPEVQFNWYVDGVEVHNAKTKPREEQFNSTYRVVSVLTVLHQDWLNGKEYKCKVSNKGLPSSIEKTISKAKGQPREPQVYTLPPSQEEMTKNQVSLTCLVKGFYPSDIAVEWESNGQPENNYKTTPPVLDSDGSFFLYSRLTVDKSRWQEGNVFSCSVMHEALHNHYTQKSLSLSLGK
light: B1 light
EC50 [1]: 132 pM
EC50 [2]: 650 pM

B4: TIGIT-E-HC (bispecific antibody)
heavy: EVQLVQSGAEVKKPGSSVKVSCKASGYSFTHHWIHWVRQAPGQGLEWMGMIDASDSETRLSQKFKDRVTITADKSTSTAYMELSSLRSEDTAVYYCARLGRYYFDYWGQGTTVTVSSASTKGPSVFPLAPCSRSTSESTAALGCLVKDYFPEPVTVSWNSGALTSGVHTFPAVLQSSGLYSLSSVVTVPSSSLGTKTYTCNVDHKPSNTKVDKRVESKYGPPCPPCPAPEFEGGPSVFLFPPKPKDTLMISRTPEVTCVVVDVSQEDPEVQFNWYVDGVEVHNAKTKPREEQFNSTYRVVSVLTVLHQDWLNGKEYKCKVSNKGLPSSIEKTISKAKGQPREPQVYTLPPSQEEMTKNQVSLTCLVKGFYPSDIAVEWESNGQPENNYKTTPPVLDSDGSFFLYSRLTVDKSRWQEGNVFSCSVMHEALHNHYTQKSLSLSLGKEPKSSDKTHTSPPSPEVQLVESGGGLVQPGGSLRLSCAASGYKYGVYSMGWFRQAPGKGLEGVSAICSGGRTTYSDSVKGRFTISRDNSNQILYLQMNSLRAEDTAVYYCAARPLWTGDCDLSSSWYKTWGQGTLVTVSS
light: B1 light
EC50 [1]: 520 pM

B5: TIGIT-G9-LN (bispecific antibody)
heavy: not shown
light: EVQLVESGGGLVQPGGSLRLSCAASGYKYGVYSMGWFRQAPGKGLEGVSAICSGGRTTYSDSVKGRFTISRDNSNQILYLQMNSLRAEDTAVYYCAARPLWTGDCDLSSSWYKTWGQGTLVTVSSGGGGSGGGSEIVLTQSPATLSLSPGERATLSCRASENVGTYISWYQQKPGQAPRLLIYGASNRYTGIPARFSGSGSGTDFTLTISSLEPEDFAVYYCGESYGHLYTFGGGTKVEIKRTVAAPSVFIFPPSDEQLKSGTASVVCLLNNFYPREAKVQWKVDNALQSGNSQESVTEQDSKDSTYSLSSTLTLSKADYEKHKVYACEVTHQGLSSPVTKSFNRGEC
EC50 [1]: 155 pM

B7: TIGIT-E-LN (bispecific antibody)
heavy: not shown
light: EVQLVESGGGLVQPGGSLRLSCAASGYKYGVYSMGWFRQAPGKGLEGVSAICSGGRTTYSDSVKGRFTISRDNSNQILYLQMNSLRAEDTAVYYCAARPLWTGDCDLSSSWYKTWGQGTLVTVSSEPKSSDKTHTSPPSPEIVLTQSPATLSLSPGERATLSCRASENVGTYISWYQQKPGQAPRLLIYGASNRYTGIPARFSGSGSGTDFTLTISSLEPEDFAVYYCGESYGHLYTFGGGTKVEIKRTVAAPSVFIFPPSDEQLKSGTASVVCLLNNFYPREAKVQWKVDNALQSGNSQESVTEQDSKDSTYSLSSTLTLSKADYEKHKVYACEVTHQGLSSPVTKSFNRGEC
EC50 [1]: 75.7 pM
